As usually defined, the Kd is a measure of binding affinity in units of concentration. Read a high Kd as lower affinity.

Where two headings read alike, the source gives them in different places.

From PMC11479839 come the findings set out here.

The target of data set [1] is T1, N-myc;MAX (human;human, UniProt P04198;P61244 1-464;1-160, |). Put plainly: fluorescence anisotropy.
Data set [2] has as its target T1, N-myc;MAX. Put plainly: fluorescence anisotropy. The source holds these as a separate data set.

T1 sequence (P04198 whole entry, chain 1 of 2): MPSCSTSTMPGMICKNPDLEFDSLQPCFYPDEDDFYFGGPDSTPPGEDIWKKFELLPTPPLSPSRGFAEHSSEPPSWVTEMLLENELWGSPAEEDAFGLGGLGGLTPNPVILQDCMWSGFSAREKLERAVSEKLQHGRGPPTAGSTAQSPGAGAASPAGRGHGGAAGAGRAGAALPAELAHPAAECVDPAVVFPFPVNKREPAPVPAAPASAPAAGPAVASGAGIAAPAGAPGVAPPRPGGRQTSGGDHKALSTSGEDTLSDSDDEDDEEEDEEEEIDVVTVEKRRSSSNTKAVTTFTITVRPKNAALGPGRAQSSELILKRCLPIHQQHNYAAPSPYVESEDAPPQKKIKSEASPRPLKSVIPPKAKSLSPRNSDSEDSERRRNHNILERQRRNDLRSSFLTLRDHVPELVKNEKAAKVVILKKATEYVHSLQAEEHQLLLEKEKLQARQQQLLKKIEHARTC
T1 sequence (P61244 whole entry, chain 2 of 2): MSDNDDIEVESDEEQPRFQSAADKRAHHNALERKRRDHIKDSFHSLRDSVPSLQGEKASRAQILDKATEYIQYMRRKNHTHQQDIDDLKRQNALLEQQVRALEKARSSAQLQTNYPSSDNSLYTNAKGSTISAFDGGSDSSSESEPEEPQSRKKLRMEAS

B1: 1 NC Ebox CATCTG (table: NC Ebox-TA; text: NCE-TC) (dsDNA)
DNA 1: AGCTTAACTGACCATCTGGTCAACTA
DNA 2: TAGTTGACCAGATGGTCAGTTAAGCT
With B1, the Kd with N-myc;MAX [1] was about 655 nM.

B2: 1 NC Ebox CATATG (table: NC Ebox-TC; text: NCE-TA) (dsDNA)
DNA 1: AGCTTAACTGACCATATGGTCAACTA
DNA 2: TAGTTGACCATATGGTCAGTTAAGCT
B2 showed a Kd in the data set with N-myc;MAX [1] of about 735 nM.

B3: 1Ebox (dsDNA)
DNA 1: AGCTTAACTGACCACGTGGTCAACTA
DNA 2: TAGTTGACCACGTGGTCAGTTAAGCT
The molecule B3 yielded an equilibrium dissociation constant (Kd) in the data set with N-myc;MAX [2] of about 150 nM.
